The values below come from article PMC4655838, “Versatility in phospho-dependent molecular recognition of the XRCC1 and XRCC4 DNA-damage scaffolds by aprataxin-family FHA domains” (DNA Repair, 2015).

Assay [1] addresses T1, APLF FHA domain (residues 1-106) (UniProt Q8IW19 1-106).
T1 construct: Cloned BamHI/XhoI in pGEX-6P-1; also called aprataxin- and PNKP-like factor FHA domain; source: E. coli Rosetta2 (DE3), purified (glutathione resin, cleaved with rhinovirus 3C protease, Superdex 75); not shown: GST, N-terminal, cleaved
T1 sequence (looked up): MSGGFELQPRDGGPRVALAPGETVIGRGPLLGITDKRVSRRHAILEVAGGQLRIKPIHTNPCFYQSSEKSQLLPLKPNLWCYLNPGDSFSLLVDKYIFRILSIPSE
The experiment in a line: ITC; peptide injected (30 x 10 ul) into FHA domain in the cell; 22 °C; 50 mM HEPES pH 7.5, 150 mM NaCl, 5 mM β-mercaptoethanol; XRCC1 peptides 1 mM into 100 μM protein, XRCC4 peptides 300 μM into 30 μM protein; single-site binding model. The conditions noted are these: both partners purified.

Assay [2] deals with T2, selenomethionine-labelled APLF FHA domain L91M (residues 1-106) (UniProt Q8IW19 1-106, L91 M, selenomethionine-labelled).
T2 construct: residues 1-104 are in the final model; also called APLF L91 M; APLF/XRCC4 SeMet; source: E. coli Rosetta2 (DE3) in SelenoMet medium, purified as the wild-type protein; not shown: GST, N-terminal, cleaved
T2 sequence (looked up): T1 sequence (looked up) with L91M
Put plainly: crystal structure; selenomethionine-labelled APLF FHA L91M with peptide at 1:3; hanging drops at 18 °C, 0.1 M Tris pH 8.0, 30% PEG 3350, 0.2 M MgCl2; SAD, refined at 1.4 Å. To be noted: both partners purified.

Where a chain is given by its changes, count along the chain named. Square brackets hold non-standard residues; d marks the D form. Ends that are not written are not given here. pT = C[C@@H](OP(=O)(O)O)[C@H](N)C(=O)O; pS = N[C@@H](COP(=O)(O)O)C(=O)O

B1: XRCC1 515-529 peptide phosphorylated on Ser518, Thr519 and Thr523 (peptide)
peptide: YAG[pS][pT]DEN[pT]DSEEHQ-NH2
modifications: N-terminus assumed
SMILES: C[C@H](NC(=O)[C@@H](N)Cc1ccc(O)cc1)C(=O)NCC(=O)N[C@@H](COP(=O)(O)O)C(=O)N[C@H](C(=O)N[C@@H](CC(=O)O)C(=O)N[C@@H](CCC(=O)O)C(=O)N[C@@H](CC(N)=O)C(=O)N[C@H](C(=O)N[C@@H](CC(=O)O)C(=O)N[C@@H](CO)C(=O)N[C@@H](CCC(=O)O)C(=O)N[C@@H](CCC(=O)O)C(=O)N[C@@H](Cc1c[nH]cn1)C(=O)N[C@@H](CCC(N)=O)C(N)=O)[C@@H](C)OP(=O)(O)O)[C@@H](C)OP(=O)(O)O
notes: XRCC1 residues 515-529; also called YAGpSpTDENpTDSEEHQ; tri-phosphorylated XRCC1 peptide; source: synthetic peptide (Dr. W. Mawby, University of Bristol), purified by HPLC
Turning to B1, in assay [1], the “fold weaker binding than the triphosphorylated XRCC4 peptide” value was 26 fold and the “stoichiometry N” value is ~2 APLF FHA domains per peptide.

B2: XRCC4 229-237 peptide phosphorylated on Ser232, Thr233 and Ser237 (peptide)
peptide: YDE[pS][pT]DEE[pS]-NH2
modifications: N-terminus assumed
SMILES: C[C@@H](OP(=O)(O)O)[C@H](NC(=O)[C@H](COP(=O)(O)O)NC(=O)[C@H](CCC(=O)O)NC(=O)[C@H](CC(=O)O)NC(=O)[C@@H](N)Cc1ccc(O)cc1)C(=O)N[C@@H](CC(=O)O)C(=O)N[C@@H](CCC(=O)O)C(=O)N[C@@H](CCC(=O)O)C(=O)N[C@@H](COP(=O)(O)O)C(N)=O
notes: also called tri-phosphorylated XRCC4 peptide; triphosphorylated XRCC4; source: synthetic peptide (Dr. W. Mawby, University of Bristol), purified by HPLC
Take B2: in assay [2], the binding result is “binds”.

B3: XRCC1 515-529 peptide phosphorylated on Ser518 and Thr519 (peptide)
peptide: YAGSTDENTDSEEHQ
HELM: PEPTIDE1{Y.A.G.[O=C([C@H](COP(=O)(O)O)N[*:1])[*:2]].[C[C@@H](OP(=O)(O)O)[C@H](N[*:1])C(=O)[*:2]].D.E.N.T.D.S.E.E.H.Q.[am]}$$$$V2.0; N-terminus assumed
SMILES: C[C@H](NC(=O)[C@@H](N)Cc1ccc(O)cc1)C(=O)NCC(=O)N[C@@H](COP(=O)(O)O)C(=O)N[C@H](C(=O)N[C@@H](CC(=O)O)C(=O)N[C@@H](CCC(=O)O)C(=O)N[C@@H](CC(N)=O)C(=O)N[C@H](C(=O)N[C@@H](CC(=O)O)C(=O)N[C@@H](CO)C(=O)N[C@@H](CCC(=O)O)C(=O)N[C@@H](CCC(=O)O)C(=O)N[C@@H](Cc1c[nH]cn1)C(=O)N[C@@H](CCC(N)=O)C(N)=O)[C@@H](C)O)[C@@H](C)OP(=O)(O)O
notes: XRCC1 residues 515-529; also called di-phosphorylated XRCC1 peptide; source: synthetic peptide (Dr. W. Mawby, University of Bristol), purified by HPLC
Regarding B3, the “fold increase in binding over the mono-phosphorylated peptide” value in assay [1] was around 3 fold.

B4: XRCC1 515-529 peptide phosphorylated on Ser518, Thr519, Thr523 and Ser525 (peptide)
peptide: YAG[pS][pT]DEN[pT]D[pS]EEHQ-NH2
modifications: N-terminus assumed
SMILES: C[C@H](NC(=O)[C@@H](N)Cc1ccc(O)cc1)C(=O)NCC(=O)N[C@@H](COP(=O)(O)O)C(=O)N[C@H](C(=O)N[C@@H](CC(=O)O)C(=O)N[C@@H](CCC(=O)O)C(=O)N[C@@H](CC(N)=O)C(=O)N[C@H](C(=O)N[C@@H](CC(=O)O)C(=O)N[C@@H](COP(=O)(O)O)C(=O)N[C@@H](CCC(=O)O)C(=O)N[C@@H](CCC(=O)O)C(=O)N[C@@H](Cc1c[nH]cn1)C(=O)N[C@@H](CCC(N)=O)C(N)=O)[C@@H](C)OP(=O)(O)O)[C@@H](C)OP(=O)(O)O
notes: XRCC1 residues 515-529; also called tetra-phosphorylated XRCC1 peptide; source: synthetic peptide (Dr. W. Mawby, University of Bristol), purified by HPLC
For the molecule B4, the “stoichiometry N” value in assay [1] was ~2 APLF FHA domains per peptide.

B5: XRCC4 229-237 peptide phosphorylated on Thr233 (peptide)
peptide: YDESTDEES
HELM: PEPTIDE1{Y.D.E.S.[C[C@@H](OP(=O)(O)O)[C@H](N[*:1])C(=O)[*:2]].D.E.E.S.[am]}$$$$V2.0; N-terminus assumed
SMILES: C[C@@H](OP(=O)(O)O)[C@H](NC(=O)[C@H](CO)NC(=O)[C@H](CCC(=O)O)NC(=O)[C@H](CC(=O)O)NC(=O)[C@@H](N)Cc1ccc(O)cc1)C(=O)N[C@@H](CC(=O)O)C(=O)N[C@@H](CCC(=O)O)C(=O)N[C@@H](CCC(=O)O)C(=O)N[C@@H](CO)C(N)=O
notes: also called mono-phosphorylated (pT233) XRCC4; XRCC4 peptide phosphorylated solely on the threonine in the core motif; source: synthetic peptide (Dr. W. Mawby, University of Bristol), purified by HPLC
B5: the “fold tighter binding than the XRCC1 pThr519 peptide” value in assay [1] was around 8 fold.
